T1: pGAD10 two-hybrid clone encoding the 476 carboxyl-terminal amino acids of E6-AP (human, UniProt Q05086 400-875)
T1 construct: domain: 476 carboxyl-terminal amino acids; also called one weakly positive clone
T1 sequence: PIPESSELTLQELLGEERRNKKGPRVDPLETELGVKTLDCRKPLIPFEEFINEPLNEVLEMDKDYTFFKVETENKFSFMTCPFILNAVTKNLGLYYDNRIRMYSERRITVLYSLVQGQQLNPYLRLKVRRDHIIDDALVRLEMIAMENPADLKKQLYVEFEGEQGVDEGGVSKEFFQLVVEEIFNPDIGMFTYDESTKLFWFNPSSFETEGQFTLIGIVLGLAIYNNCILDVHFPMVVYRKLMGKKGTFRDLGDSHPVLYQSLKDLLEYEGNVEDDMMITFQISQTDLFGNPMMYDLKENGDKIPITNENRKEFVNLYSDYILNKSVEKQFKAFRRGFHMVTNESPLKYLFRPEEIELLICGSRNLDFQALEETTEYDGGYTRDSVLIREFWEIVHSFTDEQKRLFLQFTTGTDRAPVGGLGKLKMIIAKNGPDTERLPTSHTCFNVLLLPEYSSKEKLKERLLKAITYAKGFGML

B1: pGBT9-E6 bait (GAL4 fused to HPV16 E6 residues 2-158) (other)
chain: MKLLSSIEQACDICRLKKLKCSKEKPKCAKCLKNNWECRYSPKTKRSPLTRAHLTEVESRLERLEQLFLLIFPREDLDMILKMDSLQDIKALLTGLFVQDNVNKDAVTDRLASVETDMPLTLRQHRISATSSSEESSNKGQRQLTVSHQKRTAMFQDPQERPRKLPQLCTELQTTIHDIILECVYCKQQLLRREVYDFAFRDLCIVYRDGNPYAVCDKCLKFYSKISEYRHYCYSLYGTTLEQQYNKPLCDLLIRCINCQKPLCPEEKQRHLDKKQRFHNIRGRWTGRCMSCCRSSRTRRETQL
notes: also called pGB9-E6
B2: pGAD10 two-hybrid clone encoding the 194 carboxyl terminal amino acid residues of E6TP1 (other)
chain: NDVLFSSTYPSLPKSLPLRRPSYTLGMKSLHGEFSASDSSLTDIQETRRQPMPDPGLMPLPDTAADLDWSNLVDAAKAYEVQRASFFAASDENHRPLSAASNSDQLEDQALAQMKPYSSSKDSSPTLASKVDQLEGMLKMLREDLKKEKEDKAHLQAEVQHLREDNLRLQEESQNASDKLKKFTEWVFNTIDMS
notes: also called set of eleven identical strongly positive clones
B3: human lamin/GAL4 DNA binding domain fusion protein (pLam 5') (other)
chain: MKLLSSIEQACDICRLKKLKCSKEKPKCAKCLKNNWECRYSPKTKRSPLTRAHLTEVESRLERLEQLFLLIFPREDLDMILKMDSLQDIKALLTGLFVQDNVNKDAVTDRLASVETDMPLTLRQHRISATSSSEESSNKGQRQLTVSSEEVVSREVSGIKAAYEAELGDARKTLDSVAKERARLQLELSKVREEFKELKARNTKKEGDLIAAQARLKDLEALLNSKEAALSTALSEKRTLEGELHDLRGQVAKLEAALGEAKKQLQDEMLRRVDAENRLQTMKEELDFQKNIYSEELRETKRRHETRLVEID
notes: Control bait from Clontech; also called human lamin fused to Gal4 in pGBT9
B4: pGAD10 two-hybrid clone encoding the 378 carboxyl terminal amino acid residues of E6TP1 (other)
chain: SSRHSASPVVFTSARSSPKEELHPAAPSQLAPSFSSSSSSSSGPRSFYPRQGATSKYLIGWKKPEGTINSVGFMDTRKRHQSDGNEIAHTRLRASTRDLRASPKPTSKSTIEEDLKKLIDLESPTPESQKSFKFHALSSPQSPFPSTPTSRRALHRTLSDESIYNSQREHFFTSRASLLDQALPNDVLFSSTYPSLPKSLPLRRPSYTLGMKSLHGEFSASDSSLTDIQETRRQPMPDPGLMPLPDTAADLDWSNLVDAAKAYEVQRASFFAASDENHRPLSAASNSDQLEDQALAQMKPYSSSKDSSPTLASKVDQLEGMLKMLREDLKKEKEDKAHLQAEVQHLREDNLRLQEESQNASDKLKKFTEWVFNTIDMS
notes: also called one distinct strongly positive clone; longer yeast two-hybrid cDNA clone
B5: murine p53/GAL4 DNA binding domain fusion protein (pVA3) (other)
chain: MKLLSSIEQACDICRLKKLKCSKEKPKCAKCLKNNWECRYSPKTKRSPLTRAHLTEVESRLERLEQLFLLIFPREDLDMILKMDSLQDIKALLTGLFVQDNVNKDAVTDRLASVETDMPLTLRQHRISATSSSEESSNKGQRQLTVSPVTETPGPVAPAPATPWPLSSFVPSQKTYQGNYGFHLGFLQSGTAKSVMCTYSPPLNKLFCQLAKTCPVQLWVSATPPAGSRVRAMAIYKKSQHMTEVVRRCPHHERCSDGDGLAPPQHLIRVEGNLYPEYLEDRQTFRHSVVVPYEPPEAGSEYTTIHYKYMCNSSCMGGMNRRPILTIITLEDSSGNLLGRDSFEVRVCACPGRDRRTEEENFRKKEVLCPELPPGSAKRALPTCTSASPPQKKKPLDGEYFTLKIRGRKRFEMFRELNEALELKDAHATEESGDSRAHSSYLKTKKGQSTSRHKKTMVKKVGPDSD
notes: Control bait from Clontech; also called murine p53 fused to Gal4 in pGBT9
B6: HPV6 E6 protein (other)
chain: MESANASTSATTIDQLCKTFNLSMHTLQINCVFCKNALTTAEIYSYAYKHLKVLFRGGYPYAACACCLEFHGKINQYRHFDYAGYATTVEEETKQDILDVLIRCYLCHKPLCEVEKVKHILTKARFIKLNCTWKGRCLHCWTTCMEDMLP
notes: also called low-risk HPV6 E6
B7: HPV16 E6 protein (other)
chain: MFQDPQERPRKLPQLCTELQTTIHDIILECVYCKQQLLRREVYDFAFRDLCIVYRDGNPYAVCDKCLKFYSKISEYRHYCYSLYGTTLEQQYNKPLCDLLIRCINCQKPLCPEEKQRHLDKKQRFHNIRGRWTGRCMSCCRSSRTRRETQL
notes: also called high-risk HPV16 E6; wild-type E6
B8: HPV11 E6 protein (other)
chain: MESKDASTSATSIDQLCKTFNLSLHTLQIQCVFCRNALTTAEIYAYAYKNLKVVWRDNFPFAACACCLELQGKINQYRHFNYAAYAPTVEEETNEDILKVLIRCYLCHKPLCEIEKLKHILGKARFIKLNNQWKGRCLHCWTTCMEDLLP

Key:
[1] = target: B4; assay: yeast two-hybrid: growth on Trp-, Leu-, His- medium and beta-gal activity
[2] = target: B3; assay: yeast two-hybrid, control bait
[3] = target: B5; assay: yeast two-hybrid, control bait
[4] = target: B1; assay: yeast two-hybrid: growth on Trp-, Leu-, His- medium and beta-gal activity
[5] = target: T1, pGAD10 two-hybrid clone encoding the …; assay: yeast two-hybrid, control bait
[6] = target: B4; assay: yeast two-hybrid, control bait
GST = target: T2, GST (UniProt P08515 1-218 = GST); assay: GST pull-down of in vitro translated 35S-labelled E6
T2 construct: Negative control; also called GST alone
T2 sequence (P08515 whole entry): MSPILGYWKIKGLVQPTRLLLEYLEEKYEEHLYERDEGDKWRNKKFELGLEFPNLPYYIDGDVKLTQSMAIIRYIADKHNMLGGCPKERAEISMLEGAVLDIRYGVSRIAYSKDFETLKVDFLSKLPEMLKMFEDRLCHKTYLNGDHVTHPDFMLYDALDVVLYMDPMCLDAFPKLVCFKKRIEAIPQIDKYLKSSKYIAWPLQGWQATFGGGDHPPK

Does B1 bind [1]?
Result: binds

Does B2 bind [2]?
Result: no binding

Does B2 bind [3]?
Result: no binding

Does B2 bind [4]?
Result: binds

Does B3 bind [5]?
Result: no binding

Does B3 bind [6]?
Result: no binding

Does B4 bind [3]?
Result: no binding

Does B5 bind [5]?
Result: no binding

Does B6 bind (GST)?
Result: no binding (tested: 1 µg GST fusion protein)

Does B7 bind (GST)?
Result: no binding (tested: 1 µg GST fusion protein)

Does B8 bind (GST)?
Result: no binding (tested: 1 µg GST fusion protein)
